{"source": "paper PMC7432914", "about": "“Corynebacterium glutamicum CrtR and Its Orthologs in Actinobacteria: Conserved Function and Application as Genetically Encoded Biosensor for Detection of Geranylgeranyl Pyrophosphate” (International Journal of Molecular Sciences, 2020)", "molecules": {"B1": {"name": "C. callunae crtR-mmpl intergenic region (dsDNA)", "DNA 1": "CGCAAGATGCCGGGAAATACGCTCTGAAGAGGGGTTTTCATGGCCTTAAACCTTTATATATGCAAATTGTTAAATTATCCAACAGTGTAAGGTATCCCATTTTCTTAAAAAAAGGGTTAATATCCATCTATGTCCGATCCGCAA", "DNA 2": "TTGCGGATCGGACATAGATGGATATTAACCCTTTTTTTAAGAAAATGGGATACCTTACACTGTTGGATAATTTAACAATTTGCATATATAAAGGTTTAAGGCCATGAAAACCCCTCTTCAGAGCGTATTTCCCGGCATCTTGCG"}, "B2": {"name": "P. nicotinovorans crtR-idi intergenic region (dsDNA)", "DNA 1": "CATACTGCGCCTTCCTCCTGCAACCTGAGTCTTTACAGCAGCCCGAATATTGCTAGACAAGCTAGAAGAAAGGCTACCATGTAGGAAGTTAGGTGTAACATACTCAGCATG", "DNA 2": "CATGCTGAGTATGTTACACCTAACTTCCTACATGGTAGCCTTTCTTCTAGCTTGTCTAGCAATATTCGGGCTGCTGTAAAGACTCAGGTTGCAGGAGGAAGGCGCAGTATG"}}, "key": {"[1]": {"molecular_target": "T1, CrtRPn (CrtR from P. nicotinovorans) (Paenarthrobacter nicotinovorans, UniProt A0ABT9TUN6)", "T1 construct": "gene J2T10_004447; full length, N-terminal His-tag (pET16b) kept, E. coli BL21(DE3), Ni-NTA; gene divergent to idi, not the mmpL-linked paralog", "T1 sequence (A0ABT9TUN6 1-195)": "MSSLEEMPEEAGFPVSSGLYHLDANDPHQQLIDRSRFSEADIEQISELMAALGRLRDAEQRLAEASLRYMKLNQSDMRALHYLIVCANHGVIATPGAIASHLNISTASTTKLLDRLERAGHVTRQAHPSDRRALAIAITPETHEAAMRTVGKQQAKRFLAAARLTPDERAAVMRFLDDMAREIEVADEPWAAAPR", "assay": "EMSA, inhibition of CrtR binding to own crtR promoter DNA", "details": "100-650 uM GGPP, 15 min preincubation before DNA; pH 7.5, 10 mM MgCl2, room temperature"}, "[2]": {"molecular_target": "T2, CrtRCc (CrtR from C. callunae) (Corynebacterium callunae, UniProt M1UIJ0)", "T2 construct": "gene H924_00295; full length, N-terminal His-tag (pET16b) kept, E. coli BL21(DE3), Ni-NTA", "T2 sequence (M1UIJ0 1-194)": "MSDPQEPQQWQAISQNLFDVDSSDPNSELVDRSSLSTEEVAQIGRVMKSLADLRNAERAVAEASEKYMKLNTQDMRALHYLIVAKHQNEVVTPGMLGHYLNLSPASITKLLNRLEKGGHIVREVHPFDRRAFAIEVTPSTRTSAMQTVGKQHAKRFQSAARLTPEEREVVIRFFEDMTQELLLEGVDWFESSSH", "assay": "EMSA, inhibition of CrtR binding to own crtR promoter DNA and crtE promoter DNA", "details": "100-650 uM GGPP, 15 min preincubation before DNA; pH 7.5, 10 mM MgCl2, room temperature"}, "[3]": {"molecular_target": "T3, CrtR (CrtRCg) (Corynebacterium glutamicum ATCC 13032) (UniProt Q8NSP1)", "T3 sequence": "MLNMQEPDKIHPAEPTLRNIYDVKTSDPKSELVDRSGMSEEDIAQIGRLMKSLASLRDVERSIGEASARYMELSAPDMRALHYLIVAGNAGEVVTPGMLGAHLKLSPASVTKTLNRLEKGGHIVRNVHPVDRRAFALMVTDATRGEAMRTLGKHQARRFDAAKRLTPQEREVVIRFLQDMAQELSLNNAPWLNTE", "assay": "EMSA", "details": "50 mM Tris-HCl pH 7.5, 10% glycerol, 50 mM KCl, 10 mM MgCl2, 0.5 mM EDTA; 20 uL, 30-90 ng DNA, 30 min at room temperature; 78 bp cg2228 upstream fragment …"}, "[4]": {"system": "T4, CrtR ortholog (CrtRPc) (Pseudarthrobacter chlorophenolicus DSM 12829), ORF:f49de8fb", "T4 sequence": "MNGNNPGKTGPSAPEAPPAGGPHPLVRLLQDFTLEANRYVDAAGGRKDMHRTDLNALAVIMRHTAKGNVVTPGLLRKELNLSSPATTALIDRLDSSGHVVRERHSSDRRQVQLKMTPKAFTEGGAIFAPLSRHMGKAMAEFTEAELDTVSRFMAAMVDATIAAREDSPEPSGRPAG", "assay": "EMSA", "details": "50 mM Tris-HCl pH 7.5, 10% glycerol, 50 mM KCl, 10 mM MgCl2, 0.5 mM EDTA; 20 uL, 30-90 ng DNA, 30 min at room temperature; 78 bp cg2228 upstream fragment …"}, "CrtR (CrtRCg)": {"molecular_target": "T5, CrtR (CrtRCg) (Corynebacterium glutamicum ATCC 13032, UniProt Q8NSP1 1-195)", "T5 sequence": "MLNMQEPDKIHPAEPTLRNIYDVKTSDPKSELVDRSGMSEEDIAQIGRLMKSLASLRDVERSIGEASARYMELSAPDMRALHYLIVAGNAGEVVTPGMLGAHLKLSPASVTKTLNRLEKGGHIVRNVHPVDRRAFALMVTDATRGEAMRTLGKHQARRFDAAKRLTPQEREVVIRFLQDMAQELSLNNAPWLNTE", "assay": "EMSA; strong binding; 50 mM Tris-HCl pH 7.5, 10% glycerol, 50 mM KCl, 10 mM MgCl2, 0.5 mM EDTA; 20 uL, 30-90 ng DNA, 30 min at room temperature; 78 bp cg2228 upstream fragment (negative control) in every sample; GGPP preincubated 15 min", "details": "protein: recombinant; tags: N-terminal His-tag (pET16b), not removed; chain copies: 2; blunt"}, "CrtR ortholog (CrtRPn)": {"molecular_target": "T6, CrtR ortholog (CrtRPn) (Paenarthrobacter nicotinovorans DSM 420, UniProt A0ABT9TUN6 1-195)", "T6 sequence": "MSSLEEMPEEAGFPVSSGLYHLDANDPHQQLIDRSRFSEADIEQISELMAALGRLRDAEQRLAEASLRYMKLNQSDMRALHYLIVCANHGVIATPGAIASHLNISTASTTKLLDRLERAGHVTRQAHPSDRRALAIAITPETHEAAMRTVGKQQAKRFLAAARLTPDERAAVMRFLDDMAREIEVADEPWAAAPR", "assay": "EMSA; no GGPP; not all DNA shifted; 50 mM Tris-HCl pH 7.5, 10% glycerol, 50 mM KCl, 10 mM MgCl2, 0.5 mM EDTA; 20 uL, 30-90 ng DNA, 30 min at room temperature; 78 bp cg2228 upstream fragment (negative control) in every sample; GGPP preincubated 15 min", "details": "protein: recombinant; tags: N-terminal His-tag (pET16b), not removed; chain copies: 2; blunt"}}}
{"molecule": "CC(C)=CCC/C(C)=C/CC/C(C)=C/CC/C(C)=C/COP(=O)(O)OP(=O)(O)O", "note": "[GGPP]", "values": [{"measurement": "EMSA, inhibition of CrtR binding to own crtR promoter DNA", "setting": "[1]", "result": "GGPP inhibited the interaction between the tested CrtR proteins and their target DNA"}, {"measurement": "EMSA, inhibition of CrtR binding to own crtR promoter DNA and crtE promoter DNA", "setting": "[2]", "result": "GGPP inhibited the interaction between the tested CrtR proteins and their target DNA"}]}
{"molecule": "TGCCTTCCATGCGGATGGTCCACGCGGGACAAAGCGGAGTAGGATTGGTTCCACATTAGACTATCTCCATGATAGAGATAAGTGCCAGTCAAGCTTTTTCAACGGGGGCCTCCGCCGGGGGCTTCCACGGCTGAGCCAGGTAATGCCAAGGCAGCTGAAGTAATATCCCTCAGGGCCTGTGCGCAAAGACGGACGGCCCCACGAACTCCAGGAGGTGACCATGAACGGCAACAATCCGGGCA (double strand) [P. chlorophenolicus crtR-mmpl intergenic region (PcrtR)]", "values": [{"measurement": "binding", "setting": "[3]", "result": "binds more weakly"}, {"measurement": "binding", "setting": "[4]", "result": "binds"}]}
{"molecule": "B1", "values": [{"measurement": "binding result", "setting": "CrtR (CrtRCg)", "result": "binds"}]}
{"molecule": "B2", "values": [{"measurement": "binding result", "setting": "CrtR ortholog (CrtRPn)", "result": "binds"}, {"measurement": "binding result", "setting": "CrtR (CrtRCg)", "result": "binds"}]}
